Measurements published in patent US20220402979A1 (AXON NEUROSCIENCE, published 2022).

Legend:
Human Tau2N4R = molecular target: T1, Human Tau2N4R; assay: SPR; literature table, Jadhav et al. 2019; AVIDITY 'nd.'
T1 construct: target in SPR of the literature rows

[1] = molecular target: T2, recombinant human mis-disordered tau protein (tau151-391/4R) (human, UniProt P10636 468-708); assay: SPR, target 'Pathological Tau151-391_4R'; literature table, Jadhav et al. 2019; AVIDITY 'nd.'
T2 construct: No tags are stated; also called pathological tau
T2 sequence (P10636 468-708): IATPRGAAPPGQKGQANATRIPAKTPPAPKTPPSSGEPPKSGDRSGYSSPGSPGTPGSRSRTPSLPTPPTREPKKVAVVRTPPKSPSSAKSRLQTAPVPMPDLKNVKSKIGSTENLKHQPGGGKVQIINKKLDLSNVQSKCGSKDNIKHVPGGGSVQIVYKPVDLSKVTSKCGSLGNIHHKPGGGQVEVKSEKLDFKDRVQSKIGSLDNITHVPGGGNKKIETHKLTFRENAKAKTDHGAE

T1 sequence (single chain, as listed by the source limits assumed): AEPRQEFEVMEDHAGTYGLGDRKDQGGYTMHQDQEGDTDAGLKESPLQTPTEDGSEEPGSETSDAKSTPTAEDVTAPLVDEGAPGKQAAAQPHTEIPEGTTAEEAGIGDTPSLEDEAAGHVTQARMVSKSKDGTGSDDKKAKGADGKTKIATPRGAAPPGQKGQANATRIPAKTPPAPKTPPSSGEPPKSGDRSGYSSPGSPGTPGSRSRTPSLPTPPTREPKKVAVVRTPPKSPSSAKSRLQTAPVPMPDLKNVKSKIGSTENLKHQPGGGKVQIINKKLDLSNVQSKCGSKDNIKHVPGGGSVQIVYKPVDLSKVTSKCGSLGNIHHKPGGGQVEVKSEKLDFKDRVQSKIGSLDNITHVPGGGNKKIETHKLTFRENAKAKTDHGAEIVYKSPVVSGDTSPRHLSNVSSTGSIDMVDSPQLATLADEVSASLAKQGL

Kd (Human Tau2N4R): 91 nM
Kd [1]: 14 nM
B1: DC8E8 (antibody, V domains shown)
VH: QVQLQQSGPELVKPGTSVKMPCKASGYIFTDYVISWVKQRTGQGLEWIGEIFPRSGSTYYNEKFKGKATLTADKSSNTAYMQLSSVTSEDSAVYFCARDYYGTSFAMDYWGQGTSVTVSS
VL: DIVMSQSPSSLAVSAGEKVTMSCKSSQSLLNSRTRKNYLAWYQQKPGQSPKLLIYWASTRESGVPDRFTGSGSGTDFTLTISSVQAEDLAVYYCKQSFYLRTFGGGTKLDIK
